Series [1] addresses EGFP-CaMzt1 (C. albicans). Description: MST.
The target of series [2] is Candida albicans γ-tubulin small complex (Caγ-TuSC) (C. albicans) (UniProt Q59PZ2). Description: SEC.
The target is the same in series [3]. Description: SEC. The source holds these as a separate data set. Background: SEC sorts molecules by how far they enter the pores of the column.
The target of series [4] is CaMzt1-EGFP (C. albicans). Description: MST.
The target of series [5] is Caγ-TuSC–CaMzt1 complex (preassembled, co-expressed) (C. albicans) (UniProt Q59PZ2). Kind of series: MST.
Series [6] concerns the target EGFP-CaMzt1^D22A (C. albicans). Description: MST.
Series [7] has as its target MOZART1-EGFP (purified) (human) (UniProt Q08AG7). Description: MST.
Series [8] concerns the target Saccharomyces cerevisiae γ-tubulin small complex (Scγ-TuSC) (S. cerevisiae) (UniProt P38863). Kind of series: SEC.
The target in another series is T1, GST–CaSpc72-N (1–420) (C. albicans, UniProt Q5AGV5 1-420).
T1 sequence (looked up): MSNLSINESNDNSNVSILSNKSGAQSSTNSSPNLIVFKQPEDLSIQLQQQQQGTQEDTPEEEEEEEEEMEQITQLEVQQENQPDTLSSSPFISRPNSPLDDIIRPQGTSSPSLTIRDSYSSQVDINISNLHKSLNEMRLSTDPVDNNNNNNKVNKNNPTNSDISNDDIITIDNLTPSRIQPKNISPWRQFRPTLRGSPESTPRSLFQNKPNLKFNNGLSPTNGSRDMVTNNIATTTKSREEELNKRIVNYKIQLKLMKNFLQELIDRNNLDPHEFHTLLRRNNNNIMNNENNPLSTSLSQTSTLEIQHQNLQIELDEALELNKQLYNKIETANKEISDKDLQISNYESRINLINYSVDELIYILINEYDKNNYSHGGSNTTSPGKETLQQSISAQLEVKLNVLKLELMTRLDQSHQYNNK
Kind of series: SEC.

The series “SEC” deals with the molecule itself. Description: SEC.
The target in series [9] is Candida albicans γ-tubulin small complex (Caγ-TuSC) (C. albicans, UniProt Q59PZ2 1-871; A0A1D8PS42 1-785; O93807 1-502). Kind of series: co-purification after co-expression.

Where two headings read alike, the source gives them in different places. Where only a bound is given, the exact number is not on record here.

Seven molecules from PMC5166503 (The Journal of Cell Biology, 2016) can be followed below.

Chain of MOZART1-EGFP (purified) (human) (Q08AG7 whole entry): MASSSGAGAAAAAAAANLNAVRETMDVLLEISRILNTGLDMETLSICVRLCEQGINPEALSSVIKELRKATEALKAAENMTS

Broadly, the Kd is the constant that tells how readily two partners part at equilibrium. A high value points to weaker binding. In the case of “CaSpc110^CM1 fragment (117–176 aa) (domain or fragment)”, the Kd in series [1] worked out at 1420 nM.
Turning to “Candida albicans γ-tubulin small complex (Caγ-TuSC), Q59PZ2 1-871; A0A1D8PS42 1-785; O93807 1-502”, the values for the percent oligomeric in series [2] and in series [3] were 30% and 5%, respectively.
As to “GST–CaSpc110-N (1–222) (domain or fragment)”, in series [4], the fold lower affinity than with EGFP-CaMzt1 came out at 3 fold. The fold higher affinity than to Caγ-TuSC in [5] worked out at 3 fold. In addition, the Kd in [1] turned out to be 187 nM; in series [7], 489 nM. In series [6], this molecule came in with a fold reduction of affinity against EGFP-CaMzt1 of 6 fold.
“Saccharomyces cerevisiae γ-tubulin small complex (Scγ-TuSC), P38863 1-823; P53540 1-846; P53378 1-473”: the percent oligomeric in series [8] was more than 90%.

B1: EGFP-CaMzt1 (natural protein, C. albicans, UniProt A0A1D8PMH7 1-58, looked up)
chain: MPPDPNSMIVELARLMNCVQLDETVLQLCIKLLDEGANPQQLAKHILAIKKETNSILT
Usually stoichiometry N stands for a count of units in the complex or per binding partner. Regarding B1, in the series with GST–CaSpc72-N (1–420), the binding result is “binds”. Moreover, the “stoichiometry N” value in “SEC” lay in the range of 3 to 4.

B2: GST-CaMzt1 (natural protein, C. albicans, UniProt A0A1D8PMH7 1-58, looked up)
chain: B1 chain
For B2, in the series “SEC”, the “stoichiometry N” value lay in the range of 3 to 4.

B3: CaMzt1-3Flag (natural protein, C. albicans, UniProt A0A1D8PMH7 1-58, looked up)
chain: B1 chain
As to B3, the “stoichiometry N” value in [9] came to 1.
